The source of these data is US20140301946A1 (Novartis, published 2014).

For test [1], the target named is T1, Human FGFR4 ECD (human, UniProt P22455 22-369).
T1 construct: whole entry is the construct; also called FGFR4 D1-D3 construct
Description: SPR (Biacore), antibody captured, FGFR ECD as analyte. How it is done:
The immobilization level and analyte interactions were measured by response unit (RU).
Subsequently, 0.078-100 nM of FGFR receptors, diluted in a 2-fold series, were injected at a flow rate of 80 μl/min for 7 min over both reference and test flow cells. Dissociation of the binding was followed for 10 min using HBS-EP⁺ supplemented with 0.5 mg/ml of BSA and 10 μg/ml heparin as running buffer. After each injection cycle, the chip surface was regenerated with 10 mM glycine, pH 2.0 at 60 μl/min for 70 s.

Test [2] has as its target T1, Human FGFR4 ECD. In words: SPR (Biacore), assay conditions similar to those for 12425. On the technique in general: In SPR one partner is held on a chip, and binding of the other changes the refractive index at the surface.
For test [3], the target named is T1, Human FGFR4 ECD. Description: SET or Biacore, IgG.
Another test concerns the target T2, FGFR2 D2-D3 Construct (Human).
T2 construct: also called E. coli derived FGFR2 D2-D3 protein
T2 chain: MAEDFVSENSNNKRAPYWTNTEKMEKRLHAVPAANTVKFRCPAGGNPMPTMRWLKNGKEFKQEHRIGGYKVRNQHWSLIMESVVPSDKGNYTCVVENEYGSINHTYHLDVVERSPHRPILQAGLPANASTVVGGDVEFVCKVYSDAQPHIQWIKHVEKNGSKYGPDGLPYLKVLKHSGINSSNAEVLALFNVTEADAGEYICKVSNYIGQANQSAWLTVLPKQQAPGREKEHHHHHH
Description: HDx-MS: deuterium uptake of FGFR2 D2-D3 peptides with mAb against control without mAb [A), D00032 FIG. 19 (B].

B1: mAb 12422 (antibody, human IgG1, kappa, V domains shown)
VH: QVQLVQSGAEVKKPGSSVKVSCKASGGTFSSYAISWVRQAPGQGLEWMGYISPYMGETHYAQKFQGRVTITADESTSTAYMELSSLRSEDTAVYYCARESYEYFDIWGQGTLVTVSS
VL: DIQMTQSPSSLSASVGDRVTITCRASQSISNDLAWYQQKPGKAPKLLIYATSILQSGVPSRFSGSGSGTDFTLTISSLQPEDFATYYCLQYYDYSYTFGQGTKVEIKR
For B1, in the test with Human FGFR4 ECD [1], binding was put at a Kd of 0.95 nM.

B2: mAb 20562 (antibody, human IgG1, kappa, V domains shown)
VH: EVQLLESGGGLVQPGGSLRLSCAASGFTFSDYAMSWVRQAPGKGLEWVSVIEGDASYTHYADSVRGRFTISRDNSKNTLYLQMNSLRAEDTAVYYCARERTYSSAFDYWGQGTLVTVSS
VL: DIQMTQSPSSLSASVGDRVTITCRASQDISSDLNWYQQKPGKAPKLLIYDASNLQSGVPSRFSGSGSGTDFTLTISSLQPEDFATYYCQQHYSPSHTFGQGTKVEIKR
Consider B2, for which the Kd in the test with Human FGFR4 ECD [2] was determined as 3.3 nM.

B3: mAb 12439 (antibody, human IgG1, kappa, V domains shown)
VH: QVQLVQSGAEVKKPGASVKVSCKASGYTFTSYDISWVRQAPGQGLEWMGWINPYNGGTNYAQKFQGRVTMTRDTSISTAYMELSRLRSEDTAVYYCAREGSGMIVYPGWSYAFDYWGQGTLVTVSS
VL: DIQMTQSPSSLSASVGDRVTITCRASQDISNDLGWYQQKPGKAPKLLIYAASSLQSGVPSRFSGSGSGTDFTLTISSLQPEDFATYYCQQHYHTPNTFGQGTKVEIKR
Turning to B3, the Kd in the test with Human FGFR4 ECD [1] stood at 4.3 nM.

B4: mAb 20811 (antibody, human IgG1, kappa, V domains shown)
VH: QVQLLESGGGLVQPGGSLRLSCAASGFTFSDYAMSWVRQAPGKGLEWVSTIEGDSNYIEYADSVKGRFTISRDNSKNTLYLQMNSLRAEDTAVYYCARERTYSSAFDYWGQGTLVTVSS
VL: DIQMTQSPSSLSASVGDRVTITCRASQDISSDLNWYQQKPGKAPKLLIYDASNLQSGVPSRFSGSGSGTDFTLTISSLQPEDFATYYCHQWYSTLYTFGQGTKVEIKR
B4 came in with a Kd in the test with Human FGFR4 ECD [3] of 0.075 nM. Further, the binding result with FGFR2 D2-D3 Construct is “binds”.

A word on the Kd: it is the free concentration of one partner at which half of the binding sites on the other are occupied at equilibrium, for simple one-to-one binding. Read a high Kd as weaker binding.
